Reference: IntAct's records for PubMed 22922713

B1: WD repeat-containing protein 19 (Mus musculus), Q3UGF1 (parent)
chain: MKRVFSLLEKSWLGAPIQFAWQKSSGNYLAVTGADYIVKIFDRHGQKRSEISLPGNCVTMDWDKDGDILAVIAEKSSCIYLWDANTNKTSQLDNGMRDQMSFLLWSKIGSFLAVGTIKGNLLIYNHQTSRKIPVLGKHTKKITCGCWNSENLLALGGEDKMITVSNQEGDTIRQTPVKSEPSDIKFSMSKTDERISSAENTISAVVGKKMLFLFHLNEPDNPVDLEFQQAYGNIVCYSWYGDGYIMIGFSRGTFLAISTHFPEVGQEIFKARDHKDNLTSVALSQTLNKAATCGDNCIKIHDLTELRDMYAIINLDDENKGLGTLSWTDDGQLLALSTQRGSLHVFLTKLPILGDACHTRIAYLTSLLEVTVANLIEGEPPITVSVDVEPTFVAVGLYHLAVGMNNRAWFYVLGENVVKKLKDVEYLGTVASICLHSDYAAALFEGKIQLHLIENEMLDAQEERETRLFPAVDDKCRILCHALTSDFLIYGTDTGIIHYFFIEDWQFVNDYRHPVGVKKLFPDPNGTRLVFIDEKSDGFVYCPVNDATYEIPDFSPTIKGVLWENWPMDKGVFIAYDDDKVYTYAFHKDTIQGSKVILAGSTKLPFSHKPLLLYNGELTCQTQSGKINSIYLSTHSFLGSMKDTEPTDLRQMLTQTLLLKRFSDAWDICKMLNDRTSWSELAKACLHHMEVEFAIRVSRTMGDVGTVMSLEQIKGIEDYNLLAGHLAMFTNDFNLAQDLYLASNCPVAALEMRRDLQHWDSALQLAKRLAPDQIPFISKEYAIQLEFTGDYVNALAHYEKGITGDNKEHDEVCLAGVAQMSIRMGDIRRGANQALKHPSRVLKRDCGAILENMKQFSEAAQLYEKGQYYDRAASVYIRCKNWAKVGELLPHVSSPKIHLQYAKAKEADGRYKEAVVAYENAKQWNSVIRIYLDHLNNPEKAVSIVRETQSLDGAKMVARFFLQLGDYGSAIQFLVLSKCNNEAFTLAQQHNKMEIYADIIGAEDTTNEDYQSIALYFEGEKRHFQAGKFFLLCGQYSRALKHFLKCPSSEDNVAIEMAIETVGQAKDELLTNQLIDHLMGESDGMPKDAKYLFRLYMALKQYREAARTAIIIAREEQSAGNYRNAHDVLFSMYAELKAQKIKIPSEMATNLMILHSYILVKIHVKSGDHMKGARMLIRVANNISKFPSHIVPILTSTVIECHRAGLKNSAFSFAAMLMRPEYRNKIDAKYKKKIEAMVRRPDTSETEEATTPCPFCQFLLPECELLCPGCKNNIPYCIATGRHMLKDDWTMCPHCGFPALYSEFKILLNSESTCPMCSERLNSSQLKKITDCSQYLRTEME
partner: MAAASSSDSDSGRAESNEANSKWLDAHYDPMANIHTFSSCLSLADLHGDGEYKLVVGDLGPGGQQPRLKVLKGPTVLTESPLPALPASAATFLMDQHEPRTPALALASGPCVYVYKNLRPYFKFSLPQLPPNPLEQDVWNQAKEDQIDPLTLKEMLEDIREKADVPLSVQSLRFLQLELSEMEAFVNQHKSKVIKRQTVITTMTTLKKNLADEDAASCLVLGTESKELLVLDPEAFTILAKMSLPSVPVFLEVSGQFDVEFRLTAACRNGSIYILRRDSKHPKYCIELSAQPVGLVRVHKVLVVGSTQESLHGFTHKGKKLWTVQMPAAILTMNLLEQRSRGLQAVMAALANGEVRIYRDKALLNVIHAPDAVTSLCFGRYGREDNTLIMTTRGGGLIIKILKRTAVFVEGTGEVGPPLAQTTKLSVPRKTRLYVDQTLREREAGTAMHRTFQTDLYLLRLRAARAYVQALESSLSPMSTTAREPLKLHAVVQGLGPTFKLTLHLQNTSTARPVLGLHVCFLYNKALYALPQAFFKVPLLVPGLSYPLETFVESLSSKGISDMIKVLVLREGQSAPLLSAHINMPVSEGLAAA

Variants of: B1
Settings: with bbs1_mouse Bbs1, Q3V3N7

effect of a mutation on the interaction | Variant
decreasing interaction strength | G341R
